Laboratory results published in patent US20220372138A1 (IOMX THERAPEUTICS, published 2022).
Numbering of substitutions follows the chain as printed. Read-outs that look alike come from different tables or passages of the source.

T1: full-length ECD of human IGSF11 fused to murine Fc (human, UniProt Q5DX21 23-241)
T1 construct: also called Fc-fusion IGSF11 ECD; not shown: murine Fc
T1 sequence: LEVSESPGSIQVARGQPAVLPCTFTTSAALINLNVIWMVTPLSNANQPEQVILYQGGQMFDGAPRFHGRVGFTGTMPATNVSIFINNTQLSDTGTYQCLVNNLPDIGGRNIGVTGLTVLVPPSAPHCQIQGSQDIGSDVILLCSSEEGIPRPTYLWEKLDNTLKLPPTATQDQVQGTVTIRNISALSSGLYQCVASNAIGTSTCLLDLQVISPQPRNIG

T2: IgV domain of human IGSF11 fused to murine IgG2a Fc (human, UniProt Q5DX21 23-143)
T2 construct: not shown: murine IgG2a Fc-region
T2 sequence: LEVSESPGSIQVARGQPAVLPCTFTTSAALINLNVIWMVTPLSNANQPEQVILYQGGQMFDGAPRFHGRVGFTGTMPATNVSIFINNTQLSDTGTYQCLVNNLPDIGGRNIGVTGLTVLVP

T3: murine IGSF11 expressed on cells (mouse, UniProt P0C673 23-428)
T3 construct: MC38-IGSF11, CT26-IGSF11, MC38-wt (naturally expresses murine IGSF11)
T3 sequence: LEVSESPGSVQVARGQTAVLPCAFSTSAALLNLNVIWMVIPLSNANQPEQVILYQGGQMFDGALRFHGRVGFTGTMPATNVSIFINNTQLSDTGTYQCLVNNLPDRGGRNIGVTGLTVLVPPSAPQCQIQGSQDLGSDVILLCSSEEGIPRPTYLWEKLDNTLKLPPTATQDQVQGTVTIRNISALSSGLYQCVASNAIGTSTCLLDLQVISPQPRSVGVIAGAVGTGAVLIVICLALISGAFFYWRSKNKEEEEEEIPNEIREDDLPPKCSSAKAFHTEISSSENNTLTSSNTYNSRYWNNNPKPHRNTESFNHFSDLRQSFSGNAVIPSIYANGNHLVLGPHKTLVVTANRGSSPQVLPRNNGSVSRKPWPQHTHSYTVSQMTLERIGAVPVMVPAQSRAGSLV

T4: human IGSF11 (VSIG3) expressed on cells (human, UniProt Q5DX21 23-431)
T4 sequence: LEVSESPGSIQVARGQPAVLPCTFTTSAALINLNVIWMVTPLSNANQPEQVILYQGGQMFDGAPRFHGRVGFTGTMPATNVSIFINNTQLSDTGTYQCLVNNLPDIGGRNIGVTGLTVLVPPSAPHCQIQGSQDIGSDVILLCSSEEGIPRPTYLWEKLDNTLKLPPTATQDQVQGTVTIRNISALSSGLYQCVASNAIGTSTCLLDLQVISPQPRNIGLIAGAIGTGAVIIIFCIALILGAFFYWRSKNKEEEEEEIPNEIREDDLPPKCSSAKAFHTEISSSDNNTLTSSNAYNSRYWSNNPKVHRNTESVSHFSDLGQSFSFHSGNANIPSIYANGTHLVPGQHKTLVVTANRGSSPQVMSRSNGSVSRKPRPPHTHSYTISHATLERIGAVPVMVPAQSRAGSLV

T5: extracellular domain (ECD) of human IGSF11 (VSIG3), recombinant (human, UniProt Q5DX21 23-241)
T5 construct: biotinylated where captured on streptavidin; tags of the reagent not always stated; also called IGSF11 (ECD domain); ECD-IGSF11
T5 sequence: T1 sequence

T6: ECD of murine IGSF11, recombinant biotinylated (mouse, UniProt P0C673 23-240)
T6 construct: whole entry named; also called Mouse IGSF11
T6 sequence: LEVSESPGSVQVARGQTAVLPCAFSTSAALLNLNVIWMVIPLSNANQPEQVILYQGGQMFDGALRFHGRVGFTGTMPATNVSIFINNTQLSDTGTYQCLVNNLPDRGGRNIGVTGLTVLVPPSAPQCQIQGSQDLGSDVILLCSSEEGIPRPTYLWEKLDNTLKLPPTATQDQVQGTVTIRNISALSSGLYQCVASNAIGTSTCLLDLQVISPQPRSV

T7: ECD of cynomolgus monkey IGSF11, recombinant biotinylated (cynomolgus monkey, UniProt Q5DX21 23-241 (human entry))
T7 construct: whole entry named
T7 chain: T1 sequence with P17T, I83V, A185T, S187T

T8: IgC2 domain of human IGSF11 fused to murine IgG2a Fc (human, UniProt Q5DX21 137-241)
T8 construct: not shown: murine IgG2a Fc-region
T8 sequence: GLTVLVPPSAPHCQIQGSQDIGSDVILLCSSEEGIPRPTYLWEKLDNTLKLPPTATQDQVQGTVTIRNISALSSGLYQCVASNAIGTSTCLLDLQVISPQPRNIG

T9: human IGSF11 (VSIG3) ECD, His-tagged (human, UniProt Q5DX21 23-241)
T9 construct: in part bought (SinoBiological 13094-H08H); also called HIS-IGSF11; IGSF11-HIS; not shown: His tag
T9 sequence: T1 sequence

B1: C-017 (IgG1 format) (antibody, V domains shown)
VH: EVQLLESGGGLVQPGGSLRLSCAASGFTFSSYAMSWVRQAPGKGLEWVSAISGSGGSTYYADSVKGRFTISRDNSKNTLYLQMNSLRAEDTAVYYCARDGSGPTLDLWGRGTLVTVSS
VL: DIQMTQSPSSLSASVGDRVTITCRASQSISSYLNWYQQKPGKAPKLLIYAASSLQSGVPSRFSGSGSGTDFTLTISSLQPEDFATYYCQQHRYIPPWTFGQGTKVEIK
B2: C-019 (Fab format) (Fab, V domains shown)
VH: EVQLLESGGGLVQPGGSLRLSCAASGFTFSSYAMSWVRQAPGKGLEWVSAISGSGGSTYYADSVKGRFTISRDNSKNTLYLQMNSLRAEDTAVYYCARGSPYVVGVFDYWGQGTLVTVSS
VL: B1 VL with H91W, R92Q, Y93H, I94E, W97Y
notes: Fab from E. coli lysate
B3: A-011 (IgG1 format) (antibody, V domains shown)
VH: QVQLVESGGGVVQPGRSLRLSCAASGFTFSSYAMHWVRQAPGKGLEWVAVISYDGSNKYYADSVKGRFTISRDNSKNTLYLQMNSLRAEDTAVYYCAEGGALNYYGMDVWGQGTTVTVSS
VL: SSELTQDPGVSVALGQTVRITCQGDSLRHFYATWYQQKPGQAPILVIYGKNNRPSGIPDRFSGSSSEDTASLTITGAQAEDEADYYCQSRDPRNNHLIFGGGTKLIVL
notes: human IgG1 format
B4: D-115 (IgG format) (antibody, V domains shown)
VH: EVQLLESGGGLVQPGGSLRLSCAASGFTFQFSALSWVRQAPGKGLEWVSAISYGGGSKYYADSVKGRFTISRDNSKNTLYLQMNSLRAEDTAVYYCARDSRDAYGVAFDLWGQGTMVTVSS
VL: ASVLTQPPSVSAAPGQKVTISCSGSSSNIGNNYVSWYQQLPGTAPKLLIYDNNKRPSGIPDRFSGSKSGTSATLGITGLQAEDEADYYCQSYESRLFVFGGGTKLTVL
B5: C-003 (IgG1 format) (antibody, V domains shown)
VH: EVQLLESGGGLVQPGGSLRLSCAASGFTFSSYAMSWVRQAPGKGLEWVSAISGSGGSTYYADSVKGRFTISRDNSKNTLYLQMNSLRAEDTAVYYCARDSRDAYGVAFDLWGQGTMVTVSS
VL: B4 VL with Q90L, E93T, R95S, L96Q, F97Y
B6: C-013 (Fab format) (Fab, V domains shown)
VH: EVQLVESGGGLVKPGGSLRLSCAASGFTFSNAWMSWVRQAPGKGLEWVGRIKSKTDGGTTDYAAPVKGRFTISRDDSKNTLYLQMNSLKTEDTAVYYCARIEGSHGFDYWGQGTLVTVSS
VL: SYELTQPPSVSVSPGQTASITCSGDKLGDKYASWYQQKPGQSPVLVIYQDSKRPSGIPERFSGSNSGNTATLTISGTQAEDEADYYCASYLHTPKQFVFGGGTKLTVL
notes: Fab from E. coli lysate
B7: C-018 (Fab format) (Fab, V domains shown)
VH: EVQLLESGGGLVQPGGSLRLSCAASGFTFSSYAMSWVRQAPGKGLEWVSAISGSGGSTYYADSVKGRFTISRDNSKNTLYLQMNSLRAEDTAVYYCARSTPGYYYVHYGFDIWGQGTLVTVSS
VL: B6 VL with A88Q, S89A, Y90W, L91S, H92T, T93S, P94T, K95H, Q96S, F97W
notes: Fab from E. coli lysate
B8: C-027 (Fab format) (Fab, V domains shown)
VH: QVQLVQSGAEVKKPGSSVKVSCKASGGTFSSYAISWVRQAPGQGLEWMGGIIPIFGTANYAQKFQGRVTITADESTSTAYMELSSLRSEDTAVYYCARENIPSYYDSSGRQDAFDIWGQGTMVTVSS
VL: B6 VL with A88Q, T93K, P94S, K95H, Q96G, F97A
notes: Fab from E. coli lysate
B9: C-007 (IgG1 format) (antibody, V domains shown)
VH: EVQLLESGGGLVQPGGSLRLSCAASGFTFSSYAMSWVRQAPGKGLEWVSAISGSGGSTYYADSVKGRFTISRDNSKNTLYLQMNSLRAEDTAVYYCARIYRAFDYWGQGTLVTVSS
VL: ASVLTQPPSVSAAPGQKVTISCSGSSSNIGNNYVSWYQQLPGTAPKLLIYDNNKRPSGIPDRFSGSKSGTSATLGITGLQAEDEADYYCQLYEEEHSTWVFGGGTKLTVL
B10: C-004 (Fab format) (Fab, V domains shown)
VH: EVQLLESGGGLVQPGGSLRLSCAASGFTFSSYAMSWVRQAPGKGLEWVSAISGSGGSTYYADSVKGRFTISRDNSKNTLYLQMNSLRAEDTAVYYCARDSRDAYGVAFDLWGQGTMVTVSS
VL: B9 VL with Q90L, L91T, Y92W, E93T, E94G, E95A, H96G, S97R, T98I, W99F
notes: Fab from E. coli lysate
B11: C-001 (IgG1 format) (antibody, V domains shown)
VH: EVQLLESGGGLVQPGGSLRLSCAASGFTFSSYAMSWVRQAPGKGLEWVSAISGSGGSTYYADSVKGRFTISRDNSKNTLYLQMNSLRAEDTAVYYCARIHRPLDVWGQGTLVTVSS
VL: B9 VL with Q90G, L91S, Y92W, E93L, H96R, T98Q, W99Y

Key:
[1] = target: T1, full-length ECD of human IGSF11 fused …; experiment: IgG ELISA
[2] = target: T2, IgV domain of human IGSF11 fused to …; experiment: IgG ELISA
[3] = target: T3, murine IGSF11 expressed on cells; experiment: IgG FACS CT26-IGSF11
Excerpt: (§1) Unbound antibodies were removed by washing the cells three time with FACS buffer. Bound antibodies were detected with a mouse anti-human IgG antibody conjugated with AlexaFluor647.

[4] = target: T3, murine IGSF11 expressed on cells; experiment: IgG FACS MC38-IGSF11
Excerpt: as §1

[5] = target: T4, human IGSF11 (VSIG3) expressed on cells; experiment: IgG FACS MDA-MB-231-IGSF11
Excerpt: as §1

[6] = target: T5, extracellular domain (ECD) of human …; experiment: Fab ELISA
Description: (§2) In order to identify IGSF11-specific binding ABPs, monoclonal Fabs expressed from E. coli were generated from the enriched set of anti-IGFS11 antibody-expressing phage. After bacterial lysis, the Fabs were tested for their binding properties and cross-reactivity profile on recombinant ECD-IGSF11 (human, mouse and cynomolgus monkey) by standard ELISA. Briefly, biotinylated recombinant ECD-IGSF11 from human, mouse, or cynomolgus monkey were immobilized at 2 ug/mL on a streptavidin-coated 384-well Maxisorp plate. The surface was blocked with 2% (w/v) skim milk powder in PBST. After three wash cycles with PBST, a bacterial lysate of each of the anti-IGSF11 Fabs in 2% (w/v) skim milk powder was applied to the immobilized IGSF11 and incubated for 1 h. After removing all unbound Fab by 3 wash cycles with PBST, bound Fab antibodies were detected with a goat anti-human Fab antibody conjugated with horseradish peroxidase. After three wash cycles with PBST the ELISA was developed with TMB substrate.

[7] = target: T6, ECD of murine IGSF11, recombinant …; experiment: Fab ELISA
Description: as §2

[8] = target: T7, ECD of cynomolgus monkey IGSF11, …; experiment: Fab ELISA
Description: as §2

Streptavidin = Streptavidin (UniProt P22629 37-163, limits assumed); experiment: Fab ELISA
Description: as §2

[9] = target: T5, extracellular domain (ECD) of human …; experiment: BLI
[10] = target: T5, extracellular domain (ECD) of human …; experiment: SPR
[11] = target: T1, full-length ECD of human IGSF11 fused …; experiment: IgG ELISA; remark: listed apart in the source
Description: (§3) Binding of IgG antibodies to each of the full-length ECD of IGSF11, to the IgV domain of IGSF11 and to the IgC2 domain of IGSF11, was tested in the ELISA assay as follows: briefly, recombinant domains of Fc-fusion IGSF11 proteins were coated at 2 ug/mL on a 384-well Maxisorp plate. The surface was blocked with 2% (w/v) skim milk powder in PBST. […] After removing all unbound antibodies by 3 wash cycles with PBST, bound IgG ABPs were detected with a goat anti-human IgG antibody conjugated with horseradish peroxidase. After three wash cycles with PBST the ELISA was developed with TMB substrate.

[12] = target: T8, IgC2 domain of human IGSF11 fused to …; experiment: IgG ELISA
Description: as §3

[13] = target: T4, human IGSF11 (VSIG3) expressed on cells; experiment: IgG1 FACS HEK-OE
[14] = target: T9, human IGSF11 (VSIG3) ECD, His-tagged; experiment: IgG1 ELISA EC50 <0.02 nM
[15] = target: T4, human IGSF11 (VSIG3) expressed on cells; experiment: FACS, DMS 273 cells with scrambled control siRNA (SC)
[16] = target: T4, human IGSF11 (VSIG3) expressed on cells; experiment: FACS, M579-A2-luc cells with scrambled control siRNA (SC)
[17] = target: T4, human IGSF11 (VSIG3) expressed on cells; experiment: FACS, DMS 273 cells with IGSF11 siRNA (KD, knock-down control)
[18] = target: T4, human IGSF11 (VSIG3) expressed on cells; experiment: FACS, M579-A2-luc cells with IGSF11 siRNA (KD, knock-down control)
[19] = target: T4, human IGSF11 (VSIG3) expressed on cells; experiment: IgG FACS Colo741
Excerpt: as §1

[20] = target: T8, IgC2 domain of human IGSF11 fused to …; experiment: IgG ELISA; remark: listed apart in the source
[21] = target: T5, extracellular domain (ECD) of human …; experiment: BLI apparent affinity, IgG on AHC sensor, IGSF11 ECD 100 nM
Excerpt: Briefly, various APBs were loaded on an optical biosensor via a commercially available Capture System (AHC sensors, ForteBio).

Sequence of Streptavidin (P22629 37-163 limits assumed): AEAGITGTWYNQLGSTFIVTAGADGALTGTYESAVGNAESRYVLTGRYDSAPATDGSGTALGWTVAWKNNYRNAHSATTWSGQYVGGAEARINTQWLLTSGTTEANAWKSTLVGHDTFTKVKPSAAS

| Binder | EC50 [1] | EC50 [3] | EC50 [4] | EC50 [5] | A450 [6] | A450 [8] | A450 (Streptavidin) | other results |
| --- | --- | --- | --- | --- | --- | --- | --- | --- |
| B1 | 1 to 20 nM | 20 to 50 nM | 50 to 100 nM | 15 to 25 nM |  |  |  | EC50 [2]: 1 to 20 nM |
| B2 |  |  |  |  | < 1 | < 1 | < 0.1 | A450 [7]: < 1 |
| B3 |  |  |  |  |  |  |  | Kd [9]: 10 to 20 nM; Kd [10]: 250 to 500 nM; EC50 [11]: < 1 nM; EC50 [12]: < 1 nM; EC50 [13]: > 50 nM; EC50 [14]: < 0.02 nM; % binding (FACS heat-map) [15]: 6.95%; % binding (FACS heat-map) [16]: 2.05%; % binding (FACS heat-map) [17]: 3.4%; % binding (FACS heat-map) [18]: 2.41% |
| B4 |  |  |  |  |  |  |  | EC50 [19]: < 0.1 nM |
| B5 | < 1 nM | < 20 nM | < 20 nM | 10 to 15 nM |  |  |  | EC50 [20]: < 1 nM; Kd [21]: < 15 nM |
| B6 |  |  |  |  | < 1 |  | < 0.1 |  |
| B7 |  |  |  |  | < 1 | < 1 | < 0.1 | A450 [7]: < 1 |
| B8 |  |  |  |  | < 1 | < 1 | < 0.1 |  |
| B9 | < 1 nM | 20 to 50 nM | < 20 nM | < 10 nM |  |  |  | EC50 [2]: < 1 nM; Kd [21]: < 125 nM |
| B10 |  |  |  |  | < 1 | < 1 | < 0.1 | A450 [7]: < 1 |
| B11 | < 1 nM | 20 to 50 nM | 50 to 100 nM | < 10 nM |  |  |  | EC50 [2]: < 1 nM; Kd [21]: < 75 nM |
